Measured values: patent US6077682

Target: EnvZ(C)(223-289) (Escherichia coli)

With EnvZ(C)(290-450) (enzyme) the trans-autophosphorylation of sub-domain A with [gamma-32P]ATP, autoradiography was 5%.
